Assay results reported in US20190225698A1 (JIANGSU HENGRUI MEDICINE, published 2019).
Where a chain is given by its changes, count along the chain named.

T1: human TNFRSF1A expressed on transfected HEK293 cells (human, UniProt P19438 30-455)
T1 construct: whole, on cells
T1 sequence (looked up): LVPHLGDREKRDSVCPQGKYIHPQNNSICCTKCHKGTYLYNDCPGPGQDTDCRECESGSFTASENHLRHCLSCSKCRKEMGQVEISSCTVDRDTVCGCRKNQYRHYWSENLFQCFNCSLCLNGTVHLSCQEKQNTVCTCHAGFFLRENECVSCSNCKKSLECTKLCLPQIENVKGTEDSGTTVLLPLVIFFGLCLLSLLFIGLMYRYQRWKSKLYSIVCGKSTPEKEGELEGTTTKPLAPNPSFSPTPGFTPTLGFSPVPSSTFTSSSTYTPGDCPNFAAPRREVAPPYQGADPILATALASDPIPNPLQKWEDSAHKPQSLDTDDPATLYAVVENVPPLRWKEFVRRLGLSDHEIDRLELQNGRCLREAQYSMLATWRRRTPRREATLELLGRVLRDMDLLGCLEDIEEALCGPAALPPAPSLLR

T2: murine CD40 expressed on transfected HEK293 cells (murine, UniProt P27512 20-289)
T2 construct: whole, on cells
T2 sequence (looked up): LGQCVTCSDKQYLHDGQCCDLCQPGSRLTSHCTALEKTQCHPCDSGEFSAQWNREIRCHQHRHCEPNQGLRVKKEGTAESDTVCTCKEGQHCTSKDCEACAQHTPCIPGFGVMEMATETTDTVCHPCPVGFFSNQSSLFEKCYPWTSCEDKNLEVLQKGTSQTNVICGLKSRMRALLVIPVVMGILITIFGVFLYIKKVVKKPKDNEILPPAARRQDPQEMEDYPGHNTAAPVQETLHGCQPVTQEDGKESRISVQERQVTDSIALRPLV

T3: murine OX40 expressed on transfected HEK293 cells (murine, UniProt P47741 20-272)
T3 construct: whole, on cells
T3 sequence (looked up): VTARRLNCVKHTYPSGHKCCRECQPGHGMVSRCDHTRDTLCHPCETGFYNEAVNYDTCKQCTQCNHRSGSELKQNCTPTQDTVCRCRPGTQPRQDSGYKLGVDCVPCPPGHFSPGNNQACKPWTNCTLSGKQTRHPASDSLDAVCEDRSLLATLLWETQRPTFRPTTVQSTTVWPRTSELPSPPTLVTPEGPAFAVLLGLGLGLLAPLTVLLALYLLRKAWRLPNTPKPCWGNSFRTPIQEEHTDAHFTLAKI

T4: murine CD137 expressed on transfected HEK293 cells (murine, UniProt P20334 24-256)
T4 construct: whole, on cells
T4 sequence (looked up): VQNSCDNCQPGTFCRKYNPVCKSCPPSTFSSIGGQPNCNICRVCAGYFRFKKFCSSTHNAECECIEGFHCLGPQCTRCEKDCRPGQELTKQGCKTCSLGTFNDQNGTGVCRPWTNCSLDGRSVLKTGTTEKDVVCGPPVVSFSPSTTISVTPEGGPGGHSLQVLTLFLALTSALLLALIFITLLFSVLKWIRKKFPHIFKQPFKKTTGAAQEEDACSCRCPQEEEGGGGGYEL

T5: murine TNFRSF1A expressed on transfected HEK293 cells (murine, UniProt P25118 30-454)
T5 construct: whole, on cells
T5 sequence (looked up): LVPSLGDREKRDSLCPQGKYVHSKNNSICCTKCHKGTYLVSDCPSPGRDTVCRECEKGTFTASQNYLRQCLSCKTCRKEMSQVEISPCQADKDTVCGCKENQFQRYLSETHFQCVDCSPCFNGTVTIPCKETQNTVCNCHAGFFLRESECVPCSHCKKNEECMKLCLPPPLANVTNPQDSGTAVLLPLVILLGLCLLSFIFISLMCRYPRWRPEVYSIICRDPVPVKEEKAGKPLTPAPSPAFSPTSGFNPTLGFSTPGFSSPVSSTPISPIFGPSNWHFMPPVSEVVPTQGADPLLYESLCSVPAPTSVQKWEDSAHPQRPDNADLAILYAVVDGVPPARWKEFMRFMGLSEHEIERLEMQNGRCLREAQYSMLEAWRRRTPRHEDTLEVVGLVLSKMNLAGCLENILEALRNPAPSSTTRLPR

T6: human OX40 expressed on transfected HEK293 cells (human, UniProt P43489 29-277)
T6 construct: whole, on cells
T6 sequence (looked up): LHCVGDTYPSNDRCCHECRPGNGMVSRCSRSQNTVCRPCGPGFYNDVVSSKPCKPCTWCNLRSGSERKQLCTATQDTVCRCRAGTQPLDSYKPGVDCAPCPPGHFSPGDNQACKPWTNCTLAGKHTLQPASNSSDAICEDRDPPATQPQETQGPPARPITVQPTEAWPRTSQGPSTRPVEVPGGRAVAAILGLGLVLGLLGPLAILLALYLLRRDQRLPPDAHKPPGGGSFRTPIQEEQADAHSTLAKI

T7: murine CD27-FcHis fusion protein (murine, UniProt P41272 24-182, limits assumed)
T7 construct: Immobilized directly on the chip by amino coupling; also called mouse CD27; not shown: Fc and His tag
T7 sequence (looked up): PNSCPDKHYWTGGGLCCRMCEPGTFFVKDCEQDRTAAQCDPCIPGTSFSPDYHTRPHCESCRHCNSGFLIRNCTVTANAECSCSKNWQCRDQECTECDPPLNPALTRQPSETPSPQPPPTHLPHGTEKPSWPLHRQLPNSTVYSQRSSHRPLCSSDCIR

B1: anti-CD27 antibody mAb076 (IgG1 form) (antibody, V domains shown)
VH: EVQLVESGGGLVQPGGSLRLSCAASGFTFSDYGIHWVRQAPGKGLEWIGWINPNRGSTNYAQKFQGRVTISRDNSKNTLYLQLNSLRAEDTAVYYCARDYGYTWYFDVWGQGTLVTVSS
VL: DIQLTQSPSSLSASVGDRVTITCRASQDISSVLAWYQQKPGKAPKLLIYAASSLQSGVPSRFSGSGSGTDFTLTISSLQPEDFATYYCQQRDAWPLTFGQGTKVEIK
notes: Human antibody from phage display
B2: anti-CD27 antibody mAb077 (IgG1 form) (antibody, V domains shown)
VH: B1 VH with D31G, N59K, Y100P
VL: B1 VL with V32D, S53T, L96P
notes: as for B1

Assays:
[1] = target: T1, human TNFRSF1A expressed on transfected …; assay: flow cytometry on transfected HEK293 cells
[2] = target: T2, murine CD40 expressed on transfected …; assay: flow cytometry on transfected HEK293 cells
[3] = target: T3, murine OX40 expressed on transfected …; assay: flow cytometry on transfected HEK293 cells
[4] = target: T4, murine CD137 expressed on transfected …; assay: flow cytometry on transfected HEK293 cells
[5] = target: T8, human CD137 expressed on transfected HEK293 cells (human, UniProt Q07011 24-255); assay: flow cytometry on transfected HEK293 cells
T8 construct: whole, on cells

[6] = target: T5, murine TNFRSF1A expressed on …; assay: flow cytometry on transfected HEK293 cells
[7] = target: T9, human CD40 expressed on transfected HEK293 cells (human, UniProt P25942 21-277); assay: flow cytometry on transfected HEK293 cells
T9 construct: whole, on cells

[8] = target: T6, human OX40 expressed on transfected …; assay: flow cytometry on transfected HEK293 cells
[9] = target: T7, murine CD27-FcHis fusion protein; assay: SPR (Biacore), murine CD27-FcHis immobilized, antibody as analyte
Experimental: The affinity of the antibody binding to […] CD27 was also determined using SPR. In this experiment, the murine CD27-FcHis fusion protein was directly immobilized on a CMS chip (600 RU) by amino coupling. Antibodies at different concentrations (0.39, 0.78, 1.56, 3.13, 6.25, 12.5, 25, 50, 100 nM) were loaded at a flow rate of […] for 30 seconds with a dissociation time of 1800 seconds.

T9 sequence (P25942 21-277): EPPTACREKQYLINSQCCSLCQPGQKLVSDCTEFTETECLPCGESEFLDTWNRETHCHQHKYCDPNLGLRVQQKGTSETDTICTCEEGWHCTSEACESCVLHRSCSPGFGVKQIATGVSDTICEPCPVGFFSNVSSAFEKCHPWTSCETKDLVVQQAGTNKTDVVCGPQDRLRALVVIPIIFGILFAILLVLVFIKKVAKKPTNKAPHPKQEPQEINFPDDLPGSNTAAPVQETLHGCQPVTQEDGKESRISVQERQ
T8 sequence (Q07011 24-255): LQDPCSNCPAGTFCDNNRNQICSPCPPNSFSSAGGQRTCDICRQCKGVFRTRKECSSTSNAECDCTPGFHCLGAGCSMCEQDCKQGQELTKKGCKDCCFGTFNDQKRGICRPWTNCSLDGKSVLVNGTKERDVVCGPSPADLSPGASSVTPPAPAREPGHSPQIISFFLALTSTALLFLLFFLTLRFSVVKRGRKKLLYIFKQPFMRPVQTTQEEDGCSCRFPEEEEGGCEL

Row | Binder | binding result [1] | binding result [2] | binding result [3] | binding result [4] | binding result [5] | binding result [6] | binding result [7] | binding result [8] | binding result [9]
1 | B1 | no binding (tested: 100 nM) | no binding (tested: 100 nM) | no binding (tested: 100 nM) | no binding (tested: 100 nM) | no binding (tested: 100 nM) | no binding (tested: 100 nM) | no binding (tested: 100 nM) | no binding (tested: 100 nM) | binds
2 | B2 | no binding (tested: 100 nM) | no binding (tested: 100 nM) | no binding (tested: 100 nM) | no binding (tested: 100 nM) | no binding (tested: 100 nM) | no binding (tested: 100 nM) | no binding (tested: 100 nM) | no binding (tested: 100 nM) | binds
